# No end group written: not given here.
# B1: monoclonal antibody (SSVmAb) of Example 1, produced by Mouse-Mouse hybridoma SSV-C 93-3 (antibody, IgG1, V domains shown)
# VH: EIQLQQSGAELVKPGASVKISCKASGYSFTGYNMNWVKQSHGKSLEWIGNINPYYGSTSYNQKFKGKATLTVDKSSSTAYMQLNSLTSEDSAVYYCARSPYYSNYWRYFDYWGQGTTLTVSS
# VL: QIVLSQSPAILSASPGEKVTMTCRASSSVSYMHWYQQKPGSSPKPWIYATSNLASGVPARFSGSGSGTSYSLTISRVEAEDAATYYCQQWSSNPWTFGGGTKLEIK
# notes: Mouse monoclonal antibody purified from hybridoma culture supernatant; light chain amplified with a mouse kappa constant region primer
# Target: T1, conjugate of a peptide consisting of an amino acid sequence represented by SEQ ID NO: 1 and KLH (also: conjugated to KLH with glutaraldehyde, attachment site not given here)
# T1 construct: Synthetic peptide (Fmoc solid phase) chemically conjugated to KLH; used as the immunogen and as the coating antigen in the antibody titer ELISA; also called antigenic substance; not shown: KLH carrier protein (SIGMA), coupled by glutaraldehyde
# T1 peptide: SSVLYGGPPSAA
# Assay: antibody titer ELISA, plate coated with the peptide-KLH conjugate, hybridoma culture supernatant, fluorescence read-out
# Experimental: A buffer solution containing the above-mentioned antigenic substance (5 mg) (Baicarbonate buffer: 100 mM NaHCO₃—NaOH, pH 9.2 to 9.5, the concentration of the peptide: 1 μg/mL) was added to a 96 well flat bottom plate in an amount of 50 μL per well, and allowed to stand for coating at room temperature for 2 hours. The plate was washed 3 times with wash buffer (PBST), and then blocking buffer (3% skim milk 1% BSA, PBS) was added in an amount of 200 to 250 μL/well to react at 4° C. for one full day, and then washed 3 times. Then the culture supernatant of hybridoma was added in an amount of 100 μL/well, which was allowed to react at 37° C. for 4 hours or at 4° C. for one full day. After the plate was washed 3 times, biotin-labeled anti-mouse IgG (SIGMA) diluted 10000 times with dilution buffer (10 mM Tris-HCl (pH 8.0), 0.9% (W/V) NaCl, 0.05% (W/V) Tween 20) was added in an amount of 50 μL/well, which was allowed to react at room temperature for 2 hours. […] Then washing was performed 6 times, and fluorescent substrate buffer (Attophos substrate buffer, Roche Diagnostics K.K.) was added in an amount of 50 μL/well, and the plate was shaded to allow fluorescence to develop. Fluorescence intensity was measured in CytoFluorII (PerSeptive Biosystems).
binder,measurement,value
B1,binding result,binds

# — patent US20140010815A1 (JOSAI UNIVERSITY, published 2014)
